Results on 6 molecules are retold here after publication PMC10497406, “PCNA recruits cohesin loader Scc2 to ensure sister chromatid cohesion” (Nature Structural & Molecular Biology, 2023).

To fix the notation:
B1: N-terminally His-tagged yeast Pol30 (PCNA) (natural protein, S. cerevisiae, UniProt P15873 1-258, looked up)
chain: MLEAKFEEASLFKRIIDGFKDCVQLVNFQCKEDGIIAQAVDDSRVLLVSLEIGVEAFQEYRCDHPVTLGMDLTSLSKILRCGNNTDTLTLIADNTPDSIILLFEDTKKDRIAEYSLKLMDIDADFLKIEELQYDSTLSLPSSEFSKIVRDLSQLSDSINIMITKETIKFVADGDIGSGSVIIKPFVDMEHPETSIKLEMDQPVDLTFGAKYLLDIIKGSSLSDRVGIRLSSEAPALFQFDLKSGFLQFFLAPKFNDEE
notes: Pol30 (PCNA), S. cerevisiae; no measurement of the oligomer here; also called HisPol30; yeast PCNA; not shown: His, N-terminal, kept

Details in all cases: both partners purified
The target in assay [1] is T1, N-terminally His-tagged chicken PCNA (chicken, UniProt Q9DEA3 1-262).
T1 construct: PCNA, chicken; also called HisPCNA; recombinant chicken PCNA; not shown: His, N-terminal, kept
The assay can be described thus: pull-down; GST–NIPBL fusions (chicken) on glutathione Sepharose 4B beads, recombinant N-terminally His-tagged chicken PCNA; blots with anti-PCNA and anti-GST.

For assay [2], the target named is T2, GST–Scc2^C1100 (Scc2 amino acids 394–1493 fused to GST) (S. cerevisiae, UniProt Q04002 394-1493).
T2 construct: also called nearly full-length Scc2 fused to GST; not shown: GST, N-terminal, kept
T2 sequence (looked up): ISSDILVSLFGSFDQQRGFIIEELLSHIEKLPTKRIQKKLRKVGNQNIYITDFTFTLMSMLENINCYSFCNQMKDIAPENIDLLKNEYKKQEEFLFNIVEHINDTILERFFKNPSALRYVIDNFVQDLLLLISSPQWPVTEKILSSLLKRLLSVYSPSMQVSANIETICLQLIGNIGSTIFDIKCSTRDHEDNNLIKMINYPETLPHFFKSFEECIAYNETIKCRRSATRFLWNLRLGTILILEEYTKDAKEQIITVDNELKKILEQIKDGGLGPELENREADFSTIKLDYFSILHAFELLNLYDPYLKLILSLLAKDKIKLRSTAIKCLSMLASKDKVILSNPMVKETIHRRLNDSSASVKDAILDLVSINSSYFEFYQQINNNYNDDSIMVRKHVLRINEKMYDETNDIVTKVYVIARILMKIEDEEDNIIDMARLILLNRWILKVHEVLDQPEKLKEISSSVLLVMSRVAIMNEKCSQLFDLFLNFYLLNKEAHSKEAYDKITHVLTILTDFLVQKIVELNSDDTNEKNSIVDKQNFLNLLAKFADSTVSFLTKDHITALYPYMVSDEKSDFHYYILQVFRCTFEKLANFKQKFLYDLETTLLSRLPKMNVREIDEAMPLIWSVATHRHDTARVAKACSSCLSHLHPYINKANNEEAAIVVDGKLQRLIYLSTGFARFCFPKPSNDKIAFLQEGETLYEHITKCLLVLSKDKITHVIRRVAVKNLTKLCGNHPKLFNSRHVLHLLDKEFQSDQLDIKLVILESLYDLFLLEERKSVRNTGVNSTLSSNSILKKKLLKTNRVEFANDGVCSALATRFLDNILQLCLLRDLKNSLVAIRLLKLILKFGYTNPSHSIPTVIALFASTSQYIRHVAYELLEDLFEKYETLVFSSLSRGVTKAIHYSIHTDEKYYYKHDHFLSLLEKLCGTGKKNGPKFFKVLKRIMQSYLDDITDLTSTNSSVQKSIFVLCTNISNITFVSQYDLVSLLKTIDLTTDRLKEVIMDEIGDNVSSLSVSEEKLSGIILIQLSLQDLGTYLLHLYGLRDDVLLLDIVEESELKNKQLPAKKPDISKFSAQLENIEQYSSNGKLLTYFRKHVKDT
Briefly: pull-down; GST–Scc2 fusions on glutathione Sepharose 4B beads, purified His-tagged yeast Pol30 (2.5 μg) in 0.7 ml binding buffer (1× PBS, 150 mM NaCl, 1% Triton X-100), overnight at 4 °C; western blot with anti-Pol30. For orientation: Immunoblotting shows a protein as a band on a membrane.

Assay [3] deals with B1. The description is as above.

T1 sequence (Q9DEA3 whole entry): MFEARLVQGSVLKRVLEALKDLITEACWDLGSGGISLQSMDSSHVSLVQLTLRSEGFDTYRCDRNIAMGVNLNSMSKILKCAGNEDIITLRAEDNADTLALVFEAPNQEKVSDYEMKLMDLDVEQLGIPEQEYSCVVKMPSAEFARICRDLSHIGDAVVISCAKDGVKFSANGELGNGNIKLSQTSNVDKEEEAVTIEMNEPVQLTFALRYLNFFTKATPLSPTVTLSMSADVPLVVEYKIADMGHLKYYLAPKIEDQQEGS

As to TNKVVQTLRSLYAAKDGTSS (domain or fragment, UniProt F1NJ66 2764-2783, looked up, not shown: GST, N-terminal, kept) [GST–NIPBL-PIP2 (chicken NIPBL amino acids 2764–2783 fused to GST)], in assay [1], the binding result is “binds”.
Take B1: the binding result in assay [2] was “binds”.

B2: GST–Scc2PIP (Scc2 residues 1476–1493 fused to GST) (domain or fragment, S. cerevisiae, UniProt Q04002 1476-1493, looked up)
chain: YSSNGKLLTYFRKHVKDT
notes: also called PIP of Scc2 fused to GST; last 18 amino acids of Scc2; not shown: GST, N-terminal, kept
Regarding B2, in assay [3], the binding result is “binds”.

B3: GST–NIPBL^(C202 WT) (chicken NIPBL residues 2582–2783 fused to GST) (domain or fragment, UniProt F1NJ66 2582-2783, looked up)
chain: ANSKITEEVKRSIVKQYLDFKLLMEHLDPDEEEEDGEVSASTNARNKAITSLLGGGSPKNNAAETEDDESDGEDRGGGTSGSLRRSKRNSDSTELASQMNESVDVMDVIAICCPKYKDRPQIARVVQKTSNGFSVQWMAGSYSGSWTEAKRRDGRKLVPWVDTIKESDIIYKKIALTSANKLTNKVVQTLRSLYAAKDGTSS
notes: also called NIPBL C-terminal fragment (C202); not shown: GST, N-terminal, kept
Consider B3, for which, in assay [1], the binding result is on record as “binds”.

B4: GST–NIPBL^(C202 pip1) (chicken NIPBL residues 2582–2783 with PIP1 mutated, fused to GST) (domain or fragment, UniProt F1NJ66 2582-2783, looked up)
chain: ANSKITEEVKRSIVKAYADAKLLMEHLDPDEEEEDGEVSASTNARNKAITSLLGGGSPKNNAAETEDDESDGEDRGGGTSGSLRRSKRNSDSTELASQMNESVDVMDVIAICCPKYKDRPQIARVVQKTSNGFSVQWMAGSYSGSWTEAKRRDGRKLVPWVDTIKESDIIYKKIALTSANKLTNKVVQTLRSLYAAKDGTSS
notes: also called NIPBL^Q2597A,L2599A,F2601A; not shown: GST, N-terminal, kept
For the molecule B4, the binding result in assay [1] is reported as “binds”.
The same measure, in the same setting: as for TNKVVATARSLAAAKDGTSS (domain or fragment, UniProt F1NJ66 2764-2783, looked up, not shown: GST, N-terminal, kept) [GST–NIPBL-pip2 (chicken NIPBL amino acids 2764–2783, Q2769A,L2771A,Y2775A, fused to GST)], the entry is “binds”.
